From US10653749B2, “Targeting GIV-GEF-GI signaling for treating diverse diseases” (The Regents of the University of California, priority 2015, dated 2020)
Numbering of substitutions follows the chain as printed. In names and notes the source's numbering stands. Entries after “also recorded” stand apart in the source; their conditions may differ.

B1: TAT-GIV-CT-WT: Recombinant cell-permeable fusion of TAT-PTD, His and HA tags, linker and human GIV C-terminus (aa 1660-1870), wild type; SEQ ID NO: 2 (protein)
chain: MRGSHHHHHHGMASMTGGQQMGRDLYDDDDKDRWGSKLGYGRKKRRQRRRGGSTMSGYPYDVPDYAGSMGGSGHSGETLESRHHKIKTGSPGSEVVTLQQFLEESNKLTSVQIKSSSQENLLDEVMKSLSVSSDFLGKDKPVSCGLARSVSGKTPGDFYDRRTTKPEFLRPGPRKTEDTYFISSAGKPTPGTQGKIKLVKESSLSRQSKDSNPYATLPRASSVISTAEGTTRRTSIHDFLTKDSRLPISVDSPPAAADSNTTAASNVDKVQESRNSKSRSREQQSS
B2: TAT-GIV-CT-FA: GEF-deficient F1685A mutant of the TAT-GIV-CT peptide, dominant-negative; SEQ ID NO: 3 (protein)
chain: B1 chain with F101A

Columns and labels:
[1] = test system: GIV, IRS1 and Akt phosphorylation; experiment: Metabolic insulin signaling in L6 cells by immunoblotting; assay type: cell-based, rat; details: TAT-transduced L6 myotubes; for phosphorylation of Akt in response to insulin: pS473; for phosphorylation of IRS1 in response to insulin: pY632-IRS1
Protocol: (§1) Transfection was carried out with GeneJuice (Novagen) for DNA plasmids or Oligofectamine (Invitrogen) for siRNA oligos according to manufacturer's protocols. Silencer negative Control scrambled (Scr) siRNA used as control was purchased from Ambion and the previously validated (Enomoto et al., 2005) GIV siRNA sequence used was custom-ordered from Dharmacon. For TAT-construct transduction, cells were incubated with 300-800 nM of the TAT-proteins for 30 min at 37° C. prior to three washes with PBS and addition of fresh growth media. For assays involving insulin (Novagen) stimulation of TAT-treated cells, such stimulation was carried out 90 min after transduction.
(§2) Unless otherwise indicated, serum starvation of cells for use in experiments involving insulin stimulation was carried out by growing cells overnight in the presence of no serum (i.e., 0% FBS) in the case of Cos7 and L6 cells, or in the presence of 0.2% FBS in the case of HeLa cells. To induce IR, cells were pre-treated with Sodium Palmitate (PA; Sigma-Aldrich) (0.5 mM, stock solution at 5 mM/5% FFA-free BSA in ethanol) or vehicle control (5% FFA-free BSA in ethanol) for 16 h. To reverse IR with TZDs, cells were treated with 50 μM Pioglitazone (Pio) (Sigma-Aldrich) or DMSO (vehicle control) for 18 h prior to stimulation with 100 nM insulin. Treatment with PKCθ pseudo-substrate inhibitor (Santa Cruz Biotechnologies) was performed at 10 μM for 16 h.
Protein samples for immunoblotting were run on SDS/PAGE gels and transferred onto PVDF membranes (Millipore). Membranes were blocked with PBS containing 5% non-fat milk (or with 5% BSA when probing for phosphorylated proteins) before incubation with primary antibodies. GIV was detected using rabbit anti-GIV coiled-coil (Millipore) (1:500); GIV-CT (Santa Cruz Biotechnologies) (1:500); phospho-Tyr1764-GIV (1:500) and phospho-Ser1689-GIV (21st Century Biochemicals) (1:250) antibodies. Other antibodies used in this work include rabbit polyclonal antibodies against Gαi3 (1:333), pan-GP (1:250) and phospho-IRS1 (1:500) from Santa Cruz Biotechnologies; and phospho-Akt (1:250); total Akt (1:250); phospho-ERK (1:250); phospho-AS160 (1:250); total InsRβ (1:500) and total IRS1 (1:500) from Cell signaling. Mouse monoclonal Abs against phospho-InsRβ (1:250), His (1:1000), β-tubulin (1:1000), GFP (1:500) from Santa Cruz Biotechnologies, and control IgG (Bio-Rad Laboratories) were commercially obtained. Goat anti-rabbit and goat anti-mouse Alexa Fluor 680 or IRDye 800 F(ab′)2 secondary antibodies were purchased from Li-Cor Biosciences. Images were processed with ImageJ software (NIH) and assembled as figure panels using Photoshop and Illustrator software (Adobe).

L6 myotubes = experiment: Fluorometric 2-deoxyglucose uptake assay after insulin stimulation; assay type: cell-based, rat; details: for insulin-stimulated glucose uptake in the basal state: L6 myotubes without PA; for reversal of PA-induced IR (insulin stimulated glucose uptake): PA-treated L6 myotubes
Protocol: as §1, §2
Glucose uptake assays were performed without the use of radioisotopes as described previously (Yamamoto et al., 2006). HeLa and L6 cells grown in 6-well plates were stimulated with insulin in KRH Buffer [50 mM HEPES, 137 mM NaCl, 4.7 mM KCl, 1.85 mM CaCl2, 1.3 mM MgSO4, and 0.1% (w/v) BSA-FFA free, pH 7.4]. Cells were incubated with 1 mM 2-deoxyglucose (2-DG) for 20 min, washed, and subsequently lysed with 0.1 N NaOH. The lysates were transferred into eppendorf tubes and samples were incubated in a water bath maintained at 80° C. for 45 min to degrade endogenous NAD(P)H and NAD(P)^+. An equal volume each of 0.1 N HCl and Triethanolamine (200 mM TEA, pH 8.1) buffer were added to each tube. Samples were subsequently mixed with assay solution [50 mM TEA, 0.02% BSA-FFA free, 10 μM NAD(P)^+, 0.2 U/ml Diaphorase, 6 nM Resazurin sodium, 15 U/ml G6PDH (Santa Cruz Biotechnologies)] and incubated at 37° C. for 90 min. Fluorescence intensity (λex=550 nM, λem=590 nM) was determined using a Tecan Inifinite M1000 PRO and normalized to total protein, as determined using BCA assay (Thermo Scientific).

GST-Gαi3 (GDP loaded) = biological target: T1, GST-Gαi3 (GDP loaded) (Rattus norvegicus, UniProt P08753); experiment: In vitro GST pulldown of TAT-GIV-CT proteins with GST-Gαi3; assay type: binding; details: 3 μg TAT protein, 4 h at 4° C., immunoblot with His mAb
T1 construct: made in house; host or cells: E. coli BL21(DE3)
T1 sequence (P08753 whole entry): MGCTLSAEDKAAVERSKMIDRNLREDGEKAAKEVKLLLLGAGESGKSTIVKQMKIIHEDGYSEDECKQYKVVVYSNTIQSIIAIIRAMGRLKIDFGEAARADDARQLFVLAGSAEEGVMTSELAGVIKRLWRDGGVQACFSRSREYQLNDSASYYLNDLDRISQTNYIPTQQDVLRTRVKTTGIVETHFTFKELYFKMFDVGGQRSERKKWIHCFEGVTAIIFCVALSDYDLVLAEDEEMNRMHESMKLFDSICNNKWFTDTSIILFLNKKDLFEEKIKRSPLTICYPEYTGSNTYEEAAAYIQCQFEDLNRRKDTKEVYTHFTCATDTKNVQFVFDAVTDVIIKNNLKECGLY
Protocol: Purified GST-Gαi3 or GST alone (5 μg) were immobilized on glutathione-Sepharose beads and incubated with binding buffer [50 mM Tris-HCl (pH 7.4), 100 mM NaCl, 0.4% (vol:vol) Nonidet P-40, 10 mM MgCl2, 5 mM EDTA, 30 μM GDP, 2 mM DTT, protease inhibitor mixture] for 90 min at room temperature as described (49, 50, 52, 54). TAT-GIV-CT (amino acids 1,660-1,870) proteins (3 μg) were added to each tube, and binding reactions were carried out for 4 h at 4° C. with constant tumbling. Beads were washed (four times) with 1 mL of wash buffer [4.3 mM Na2HPO4, 1.4 mM KH2PO4 (pH 7.4), 137 mM NaCl, 2.7 mM KCl, 0.1% (vol:vol) Tween 20, 10 mM MgCl2, 5 mM EDTA, 30 μM GDP, 2 mM DTT] and reduced in Laemmli's sample buffer at 37° C. Immunoblot analysis was performed by infrared imaging following the manufacturer's protocols using an Odyssey imaging system (Li-Cor Biosciences).

HeLa cells = experiment: Scratch-wound 2D cell migration assay; assay type: cell-based; details: lysates 6 h post-wounding
[2] = test system: 6-mm punch biopsy dermal wounds; experiment: Dermal wound healing in mice, topical TAT proteins; assay type: in vivo; details: for wound healing: topical 15 μg (~500 pmol) every 24 h for 8 d, vs TAT control
Protocol: Under general anesthesia, two 6-mm diameter punch biopsy wounds were created on the shaved dorsal surface of 8 wk old female C56BL/6 wild-type mice under sterile conditions. Wounds were then treated with 15 μg (˜500 pmol) of TAT proteins every 24 h for 8 d after injury, and photographed every 48 h over that period, and wound area was manually traced by placing a transparent film over the wound and tracing the outline with a permanent marker. To measure the wound area, the edges of the dermis were determined as the wound edge. […] The tracing was then scanned and measured using an image analysis program (NIH Image J Software). Five mice, each with 2 wounds (a total of 10 wounds) were studied in each treatment arm, and their rate of closure was analyzed. These studies were carried out in a blinded manner such that aliquots of purified TAT proteins were prepared and color coded before their arrival at the animal facility. Consequently, the personnel who performed dermal punch biopsies, daily treatment with TAT proteins, photography and measurement of wound area was blinded to the identity of the compound. The study protocol (FIG. 4B) included standard wound care as per IACUC guidelines.

Molecule | phosphorylation of Akt in response to insulin [1] | phosphorylation of IRS1 in response to insulin [1] | insulin-stimulated glucose uptake in the basal state (L6 myotubes) | reversal of PA-induced IR (insulin stimulated glucose uptake) (L6 myotubes) | reversal of PA-induced IR (insulin stimulated glucose uptake) (L6 myotubes; listed as GIV-CT-WT) | effectiveness in reversing PA-induced IR compared with Pio (L6 myotubes; ~800 nM of WT peptide) | Binding to GDP-loaded GST-Gαi3 in pulldown (GST-Gαi3 (GDP loaded)) | Binding to GDP-loaded GST-Gαi3 in pulldown (GST-Gαi3 (GDP loaded); listed as WT) | Akt activation during 2D cell migration (HeLa cells) | EGFR autophosphorylation during 2D cell migration (HeLa cells) | Akt activation during 2D cell migration (HeLa cells; listed as WT) | EGFR autophosphorylation during 2D cell migration (HeLa cells; listed as WT) | rate of wound healing relative to TAT-treated controls ([2]; topical 500 pmol daily) [× the rate] | time of wound healing relative to TAT-treated controls ([2]; topical 500 pmol daily) | wound healing [2] | Binding to GDP-loaded GST-Gαi3 in pulldown (GST-Gαi3 (GDP loaded); listed as FA) | wound healing ([2]; listed as FA)
B1 | enhancement | enhancement | unaffected | effectively reverse | effectively reversed | as effective as 50 μM Pio | bound | binds | enhances | enhances | enhanced | enhanced | ~2 | a day earlier | accelerated wound healing; also recorded: accelerates | – | –
B2 | suppressed | suppressed | significantly inhibited | not | – | – | did not bind | – | not | not | – | – | – | – | – | not | delayed wound healing; also recorded: retards
